This test deals with tetanus toxoid (UniProt P04958 2-1315). Briefly: ELISA, crude Fab supernatant, detected with 9E10. Background: An ELISA detects its analyte on a solid surface through an enzyme-linked reagent.
Sequence of tetanus toxoid (P04958 2-457 limits assumed, chain 1 of 2): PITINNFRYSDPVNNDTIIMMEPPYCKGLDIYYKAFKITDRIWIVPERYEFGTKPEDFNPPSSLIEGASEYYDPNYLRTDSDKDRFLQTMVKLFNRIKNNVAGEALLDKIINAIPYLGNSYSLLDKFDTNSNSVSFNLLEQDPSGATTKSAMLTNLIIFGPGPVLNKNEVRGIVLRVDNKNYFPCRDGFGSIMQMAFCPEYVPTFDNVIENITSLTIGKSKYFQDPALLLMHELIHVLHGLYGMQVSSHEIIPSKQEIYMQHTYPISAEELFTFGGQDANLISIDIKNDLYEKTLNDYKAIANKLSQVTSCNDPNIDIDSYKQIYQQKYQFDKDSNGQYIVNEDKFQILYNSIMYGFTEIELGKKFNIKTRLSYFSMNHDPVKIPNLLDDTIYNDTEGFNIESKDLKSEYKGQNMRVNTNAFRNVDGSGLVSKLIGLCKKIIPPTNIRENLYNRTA
Sequence of tetanus toxoid (P04958 458-1315 limits assumed, chain 2 of 2): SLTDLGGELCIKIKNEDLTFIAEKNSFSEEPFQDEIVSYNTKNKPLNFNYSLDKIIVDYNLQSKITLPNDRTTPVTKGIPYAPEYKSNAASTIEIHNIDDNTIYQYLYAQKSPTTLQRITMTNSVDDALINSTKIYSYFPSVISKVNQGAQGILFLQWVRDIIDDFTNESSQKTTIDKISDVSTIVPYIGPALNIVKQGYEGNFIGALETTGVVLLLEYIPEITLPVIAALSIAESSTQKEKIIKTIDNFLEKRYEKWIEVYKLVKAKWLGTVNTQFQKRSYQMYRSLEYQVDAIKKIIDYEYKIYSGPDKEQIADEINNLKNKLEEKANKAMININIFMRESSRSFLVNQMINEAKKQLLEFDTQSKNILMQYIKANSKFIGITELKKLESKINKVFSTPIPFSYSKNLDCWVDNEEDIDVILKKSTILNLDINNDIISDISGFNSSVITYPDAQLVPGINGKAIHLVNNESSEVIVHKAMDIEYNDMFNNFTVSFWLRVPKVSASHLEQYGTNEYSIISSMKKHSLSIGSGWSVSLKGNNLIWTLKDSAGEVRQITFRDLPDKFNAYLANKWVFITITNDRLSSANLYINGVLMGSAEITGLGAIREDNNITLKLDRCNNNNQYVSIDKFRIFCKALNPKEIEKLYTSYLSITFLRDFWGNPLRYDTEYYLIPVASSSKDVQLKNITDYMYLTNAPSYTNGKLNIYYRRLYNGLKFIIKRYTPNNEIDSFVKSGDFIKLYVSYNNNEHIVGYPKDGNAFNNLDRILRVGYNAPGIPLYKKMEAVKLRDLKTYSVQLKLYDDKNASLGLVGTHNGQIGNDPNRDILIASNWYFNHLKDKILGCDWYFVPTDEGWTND

B1: Fab clone 163.1 (Fab, V domains shown)
VH: VQLLEQSGAEMKRPGASVTISCQASRQTFSGQYIHWVRQAPGQGLEWMGVINPSGGSANYAPSFQGRLSMSRDASTNTVYMKLSSLTSEDTAVYYCLSQALKYWGQGTLVAVSS
VL: AAELTQSPDSLAVSLGERATINCKSNQSVLYNSNSKNYLAWYQQKPGQPPKLLIYWASTRESGVPDRFSGSGSGTDFTLTITSLQAEDVAVYYCQQYFSSPYTFGQGTKLEIK
notes: myc tag on the C terminus of the heavy chain
With B1, the binding result was “no binding (tested: antigen coated at 1 µg/ml)”.

B2: Fab clone 163.5 (Fab, V domains shown)
VH: VQLLEQSGAEVKRPGASVTISCQASRQDFSGQYIHWVRQAPGQGFEWMGIINPSGGSANYAPKFKGRLTMSRDSSTDTVYMTLTSLTSEDTAVYYCLLQALKHWGQGTLVAVSS
VL: AAELTQSPDSLAVALGERATINCKSSQSVLYSLNNKNYLAWYQQKPGQPPKLLIHWASTRESGVPDRFSGSGSETDFTLTISSLQAEDVAVYYCQQYYTTPYTFGQGTKLEIK
As for B2, the binding result is given as “no binding (tested: antigen coated at 1 µg/ml)”.

B3: Fab clone 163.17 (Fab, V domains shown)
VH: VQLLEQSGAEVKRPGASVTISCRASRQDFSGQYIHWVRQAPGQGFEWMGIINPSGGSANYAPKFKGRLTMSRDSSTETVYMTLTSLTSEDTAVYYCLLQALKHWGQGTLVGPSS
VL: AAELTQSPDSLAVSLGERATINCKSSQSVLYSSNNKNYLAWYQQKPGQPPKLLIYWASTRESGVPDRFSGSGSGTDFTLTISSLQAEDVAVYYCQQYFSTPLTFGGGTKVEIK
notes: Human IgG1 kappa Fab (MCO1 vector, soluble from E. coli HB2151), myc tag on the C terminus of the heavy chain
Turning to B3, the binding result was “no binding (tested: antigen coated at 1 µg/ml)”.

B4: Fab clone 163.24 (Fab, V domains shown)
VH: VQLLEQSGAEVKRPGASVTISCQASRQNFSGQYIHWVRQAPGQGLEWMGIINPSGGSANYAPRFKGRLSMSRDSSTDTAYLTLTSLTSEDTAVYFCLLQSLKHWGQGTLVAVSS
VL: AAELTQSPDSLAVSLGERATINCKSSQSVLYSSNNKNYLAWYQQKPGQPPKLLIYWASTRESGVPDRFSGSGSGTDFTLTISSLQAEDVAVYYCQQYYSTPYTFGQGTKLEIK
notes: as for B3
Regarding B4, the binding result was “no binding (tested: antigen coated at 1 µg/ml)”.

Source of the values: patent US20070128672A1 (ST VINCENT S HOSPITAL SYDNEY, published 2007).
